The source of these data is article PMC3597701.

In this assay the target is origin recognition complex (ORC) (S. cerevisiae) (UniProt P54784). The assay can be described thus: cross-linking.

The substance “MCM2–7 (mini-chromosome maintenance proteins 2–7) with a single HA tag at the N-terminus of Mcm3, P29469;P24279;P30665;P29496;P53091;P38132” returned a stoichiometry N (MCM2–7 hexamer per ORC) of 1.
